Square brackets hold non-standard residues; d marks the D form. Ends that are not written are not given here. 3Pal(6-Ph) = N[C@@H](Cc1ccc(-c2ccccc2)nc1)C(=O)O; Phe(4-COOH) = N[C@@H](Cc1ccc(C(=O)O)cc1)C(=O)O; NMePhe(3-Cl) = CN[C@@H](Cc1cccc(Cl)c1)C(=O)O; NMePhe(4-Cl) = CN[C@@H](Cc1ccc(Cl)cc1)C(=O)O; NMePhe(3-Me) = CN[C@@H](Cc1cccc(C)c1)C(=O)O; Bip = N[C@@H](Cc1ccc(-c2ccccc2)cc1)C(=O)O; Phe(3-Cl) = N[C@@H](Cc1cccc(Cl)c1)C(=O)O; Phe(4-Cl) = N[C@@H](Cc1ccc(Cl)cc1)C(=O)O; Phe(3-Me) = Cc1cccc(C[C@H](N)C(=O)O)c1; Phe(4-F) = N[C@@H](Cc1ccc(F)cc1)C(=O)O; Phe(4-Me) = Cc1ccc(C[C@H](N)C(=O)O)cc1; NMeF = CN[C@@H](Cc1ccccc1)C(=O)O; 3Pal = N[C@@H](Cc1cccnc1)C(=O)O; 4Pal = N[C@@H](Cc1ccncc1)C(=O)O; Aad = N[C@@H](CCCC(=O)O)C(=O)O; Cha = N[C@@H](CC1CCCCC1)C(=O)O
Columns and labels:
BMP7 = target: T1, BMP7 (Homo sapiens, UniProt P18075); experiment: BMP7 signal transduction inhibitory activity: SMAD1 phosphorylation by BMP7 stimulus, A549 cells; assay type: cell-based
T1 sequence (P18075 293-431): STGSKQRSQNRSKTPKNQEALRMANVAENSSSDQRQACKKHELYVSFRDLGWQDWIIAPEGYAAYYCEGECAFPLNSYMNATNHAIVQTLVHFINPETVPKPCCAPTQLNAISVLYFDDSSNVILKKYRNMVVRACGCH
Method in brief: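 Cell line A549; stimulus BMP7 10 nM; endpoint pSMAD1. Peptide doses: three concentrations (1–1,000 nM range) or 8 × 1/3 dilutions from 100/1,000 nM.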

BMP4 = target: T2, BMP4 (Homo sapiens, UniProt P12644); experiment: BMP4 signal transduction inhibitory activity: SMAD1 phosphorylation by BMP4 stimulus, AlphaLISA SureFire, A549 cells; assay type: cell-based
T2 sequence (P12644 293-408): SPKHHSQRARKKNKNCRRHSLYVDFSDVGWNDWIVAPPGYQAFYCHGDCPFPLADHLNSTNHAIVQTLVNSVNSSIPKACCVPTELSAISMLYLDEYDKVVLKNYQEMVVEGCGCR

[1] = SMAD1 phosphorylation, BMP7 10 nM, peptide conc. in assay 1, 10, 100 nM
[2] = SMAD1 phosphorylation, BMP4 0.2 nM, peptide conc. in assay 0.2, 2, 20 nM
[3] = BMP7 10 nM stimulus, peptide conc. in assay 10, 30, 90 nM
[4] = BMP4 0.2 nM stimulus, peptide conc. in assay 2, 20, 200 nM

Row | Substance | aLISA BMP7 (10 nM) % inh (BMP7; [3]) | aLISA BMP4 (0.2 nM) % inh (BMP4; [4]) | also measured
1 | 366 (FG[NMeF]G[Bip]GDE[Cha][Aad][NMeF]LHCG-NH2; not fully specified (N-terminus, bridges)) [compound 366] |  |  | aLISA BMP7 (10 nM) % inh (BMP7; [1]): D (showed less than 30% of inhibitory activity in 10 nM-addition zone and showed 30% or more of inhibitory activity in 100 nM-addition zone); aLISA BMP4 (0.2 nM) % inh (BMP4; [2]): ND (the inhibitory activity was less than 30% at the maximum concentration evaluated)
2 | 367 (FG[NMeF]GFGDE[Cha]Q[NMeF]LHCG-NH2; not fully specified (N-terminus, bridges)) [compound 367] |  |  | aLISA BMP7 (10 nM) % inh (BMP7; [1]): D (showed less than 30% of inhibitory activity in 10 nM-addition zone and showed 30% or more of inhibitory activity in 100 nM-addition zone); aLISA BMP4 (0.2 nM) % inh (BMP4; [2]): ND (the inhibitory activity was less than 30% at the maximum concentration evaluated)
3 | 368 (FG[NMeF]G[Bip]GDE[Cha]Q[NMeF]L[Phe(4-COOH)]CG-NH2; not fully specified (N-terminus, bridges)) [compound 368] |  |  | aLISA BMP7 (10 nM) % inh (BMP7; [1]): C (showed less than 30% of inhibitory activity in a zone to which the peptide was added in an amount of 1 nM and showed 30% or more of inhibitory activity in 10 nM-addition zone); aLISA BMP4 (0.2 nM) % inh (BMP4; [2]): ND (the inhibitory activity was less than 30% at the maximum concentration evaluated)
4 | 369 (FG[NMeF]GFGDE[Cha]Q[NMeF]L[Phe(4-COOH)]CG-NH2; not fully specified (N-terminus, bridges)) [compound 369] |  |  | aLISA BMP7 (10 nM) % inh (BMP7; [1]): D (showed less than 30% of inhibitory activity in 10 nM-addition zone and showed 30% or more of inhibitory activity in 100 nM-addition zone); aLISA BMP4 (0.2 nM) % inh (BMP4; [2]): ND (the inhibitory activity was less than 30% at the maximum concentration evaluated)
5 | 370 (FG[NMeF]G[3Pal(6-Ph)]GDE[Cha]Q[NMeF]L[Phe(4-COOH)]CG-NH2; not fully specified (N-terminus, bridges)) [compound 370] |  |  | aLISA BMP7 (10 nM) % inh (BMP7; [1]): D (showed less than 30% of inhibitory activity in 10 nM-addition zone and showed 30% or more of inhibitory activity in 100 nM-addition zone); aLISA BMP4 (0.2 nM) % inh (BMP4; [2]): ND (the inhibitory activity was less than 30% at the maximum concentration evaluated)
6 | 371 (FGFGFGDDAAFLHCG; not fully specified; MOD_RES 3 F represents Methyl-L-phenylalanine(MeF); MOD_RES 5 F represents (S)-3-(1,1'-Biphenyl-4-yl)-2-aminopropanoic acid(Bph); MOD_RES 9 A represents (S)-2-Amino-3-cyclohexylpropanoic acid(Cha); MOD_RES 11 F represents Methyl-L-phenylalanine(MeF)) [compound 371] |  |  | aLISA BMP7 (10 nM) % inh (BMP7; SMAD1 phosphorylation, BMP7 10 nM, peptide conc. in assay 10, 30, 90 nM): E (showed 30% or more of inhibitory activity in 10 nM-addition zone); aLISA BMP4 (0.2 nM) % inh (BMP4; SMAD1 phosphorylation, BMP4 0.2 nM, peptide conc. in assay 2, 20, 200 nM): A (showed less than 30% of inhibitory activity in 2 nM-peptide-addition zone and showed 30% or more of inhibitory activity in 20 nM-addition zone)
7 | 372 ([Phe(3-Cl)]G[NMeF]G[Bip]GDD[Cha]A[NMeF]LHCG-NH2; not fully specified (N-terminus, bridges); also: cyclic peptide, linkage not given here) [compound 372] | G (showed less than 30% of inhibitory activity in 30 nM-addition zone and showed 30% or more of inhibitory activity in 90 nM-addition zone) | ND (the inhibitory activity was less than 30% at the maximum concentration evaluated) | 
8 | 373 ([Phe(4-Cl)]G[NMeF]G[Bip]GDD[Cha]A[NMeF]LHCG-NH2; not fully specified) [compound 373] | F (showed less than 30% of inhibitory activity in 10 nM-addition zone and showed 30% or more of inhibitory activity in 30 nM-addition zone) | A (showed less than 30% of inhibitory activity in 2 nM-peptide-addition zone and showed 30% or more of inhibitory activity in 20 nM-addition zone) | 
9 | 374 ([Phe(3-Me)]G[NMeF]G[Bip]GDD[Cha]A[NMeF]LHCG-NH2; not fully specified) [compound 374] | G (showed less than 30% of inhibitory activity in 30 nM-addition zone and showed 30% or more of inhibitory activity in 90 nM-addition zone) | ND (the inhibitory activity was less than 30% at the maximum concentration evaluated) | 
10 | 375 ([Phe(4-Me)]G[NMeF]G[Bip]GDD[Cha]A[NMeF]LHCG-NH2; not fully specified) [compound 375] | F (showed less than 30% of inhibitory activity in 10 nM-addition zone and showed 30% or more of inhibitory activity in 30 nM-addition zone) | B (showed less than 30% of inhibitory activity in 20 nM-addition zone and showed 30% or more of inhibitory activity in 200 nM-addition zone) | 
11 | 376 (FG[NMeF]G[3Pal]GDD[Cha]A[NMeF]LHCG-NH2; not fully specified) [compound 376] | G (showed less than 30% of inhibitory activity in 30 nM-addition zone and showed 30% or more of inhibitory activity in 90 nM-addition zone) | ND (the inhibitory activity was less than 30% at the maximum concentration evaluated) | 
12 | 377 (FG[NMeF]G[4Pal]GDD[Cha]A[NMeF]LHCG-NH2; not fully specified) [compound 377] | F (showed less than 30% of inhibitory activity in 10 nM-addition zone and showed 30% or more of inhibitory activity in 30 nM-addition zone) | ND (the inhibitory activity was less than 30% at the maximum concentration evaluated) | 
13 | 378 (FG[NMeF]G[Phe(4-F)]GDD[Cha]A[NMeF]LHCG-NH2; not fully specified) [compound 378] | F (showed less than 30% of inhibitory activity in 10 nM-addition zone and showed 30% or more of inhibitory activity in 30 nM-addition zone) | ND (the inhibitory activity was less than 30% at the maximum concentration evaluated) | 
14 | 379 (FG[NMeF]G[Phe(3-Cl)]GDD[Cha]A[NMeF]LHCG-NH2; not fully specified) [compound 379] | G (showed less than 30% of inhibitory activity in 30 nM-addition zone and showed 30% or more of inhibitory activity in 90 nM-addition zone) | ND (the inhibitory activity was less than 30% at the maximum concentration evaluated) | 
15 | 380 (FG[NMeF]G[Phe(4-Cl)]GDD[Cha]A[NMeF]LHCG-NH2; not fully specified) [compound 380] | F (showed less than 30% of inhibitory activity in 10 nM-addition zone and showed 30% or more of inhibitory activity in 30 nM-addition zone) | B (showed less than 30% of inhibitory activity in 20 nM-addition zone and showed 30% or more of inhibitory activity in 200 nM-addition zone) | 
16 | 381 (FG[NMeF]G[Phe(3-Me)]GDD[Cha]A[NMeF]LHCG-NH2; not fully specified) [compound 381] | G (showed less than 30% of inhibitory activity in 30 nM-addition zone and showed 30% or more of inhibitory activity in 90 nM-addition zone) | ND (the inhibitory activity was less than 30% at the maximum concentration evaluated) | 
17 | 382 (FG[NMeF]G[Phe(4-Me)]GDD[Cha]A[NMeF]LHCG-NH2; not fully specified) [compound 382] | G (showed less than 30% of inhibitory activity in 30 nM-addition zone and showed 30% or more of inhibitory activity in 90 nM-addition zone) | ND (the inhibitory activity was less than 30% at the maximum concentration evaluated) | 
18 | 383 (FG[NMeF]GYGDD[Cha]A[NMeF]LHCG-NH2; not fully specified) [compound 383] | F (showed less than 30% of inhibitory activity in 10 nM-addition zone and showed 30% or more of inhibitory activity in 30 nM-addition zone) | ND (the inhibitory activity was less than 30% at the maximum concentration evaluated) | 
19 | 384 (FG[NMePhe(3-Cl)]G[Bip]GDD[Cha]A[NMeF]LHCG-NH2; not fully specified) [compound 384] | E (showed 30% or more of inhibitory activity in 10 nM-addition zone) | B (showed less than 30% of inhibitory activity in 20 nM-addition zone and showed 30% or more of inhibitory activity in 200 nM-addition zone) | 
20 | 385 (FG[NMePhe(4-Cl)]G[Bip]GDD[Cha]A[NMeF]LHCG-NH2; not fully specified) [compound 385] | F (showed less than 30% of inhibitory activity in 10 nM-addition zone and showed 30% or more of inhibitory activity in 30 nM-addition zone) | B (showed less than 30% of inhibitory activity in 20 nM-addition zone and showed 30% or more of inhibitory activity in 200 nM-addition zone) | 
21 | 386 (FG[NMePhe(3-Me)]G[Bip]GDD[Cha]A[NMeF]LHCG-NH2; not fully specified) [compound 386] | F (showed less than 30% of inhibitory activity in 10 nM-addition zone and showed 30% or more of inhibitory activity in 30 nM-addition zone) | B (showed less than 30% of inhibitory activity in 20 nM-addition zone and showed 30% or more of inhibitory activity in 200 nM-addition zone) | 

Reference: patent US20250361274A1, “PEPTIDE AND PEPTIDE-CONTAINING AGENT” (PEPTIDREAM INC., priority 2022, published 2025)
